1 molecule from article PMC9288159, “Identification of a guanine-specific pocket in the protein N of SARS-CoV-2” can be followed below.

The series has as its target SARS-CoV-2 N protein C-terminal domain (NCTD) (SARS-CoV-2, UniProt P0DTC9 256-364). In words: EMSA; […]; binding buffer not stated ([…]. The following applies: protein: recombinant; tags: N-terminal His6-TEV site (pET28a); chain copies: 2; label: 5' IRDye-800CW.

As for CGGUUUCUCCG (ssRNA) [Oligo-U (SL5a G to U)], the Kd turned out to be 140 ± 29 nM.
